B1: Variant 14041 (antibody, human IgG1, kappa)
heavy: EVQLVESGGGLVQPGGSLRLSCAASGFTFYDYTMDWVRQAPGKGLEWVADVNPNSGGSIYNQRFKGRFTLSVDRSKNTLYLQMNSLRAEDTAVYYCARNLGPWFYFDYWGQGTLVTVSSASTKGPSVFPLAPSSKSTSGGTAALGCLVKDYFPEPVTVSWNSGALTSGVHTFPAVLQSSGLYSLSSVVTVPSSSLGTQTYICNVNHKPSNTKVDKKVEPKSCDKTHTCPPCPAPELLGGPSVFLFPPKPKDTLMISRTPEVTCVVVDVSHEDPEVKFNWYVDGVEVHNAKTKPREEQYNSTYRVVSVLTVLHQDWLNGKEYKCKVSNKALPAPIEKTISKAKGQPREPQVYVYPPSRDELTKNQVSLTCLVKGFYPSDIAVEWESNGQPENNYKTTPPVLDSDGSFALVSKLTVDKSRWQQGNVFSCSVMHEALHNHYTQKSLSLSPG
light: not shown
chain: not shown
notes: OA (one-armed) format; clones 8785, 1811, 4372; also called v14041
B2: Variant 14039 (antibody, human IgG1, kappa)
heavy: EVQLVESGGGLVQPGGSLRLSCAASGFTFYDYTMDWVRQAPGKGLEWVADVNPNSGGSIYNQRFKGRFTLSVDRSKNTLYLQMNSLRAEDTAVYYCARNLGPSFYFDYWGQGTLVTVSSASTKGPSVFPLAPSSKSTSGGTAALGCLVKDYFPEPVTVSWNSGALTSGVHTFPAVLQSSGLYSLSSVVTVPSSSLGTQTYICNVNHKPSNTKVDKKVEPKSCDKTHTCPPCPAPELLGGPSVFLFPPKPKDTLMISRTPEVTCVVVDVSHEDPEVKFNWYVDGVEVHNAKTKPREEQYNSTYRVVSVLTVLHQDWLNGKEYKCKVSNKALPAPIEKTISKAKGQPREPQVYVYPPSRDELTKNQVSLTCLVKGFYPSDIAVEWESNGQPENNYKTTPPVLDSDGSFALVSKLTVDKSRWQQGNVFSCSVMHEALHNHYTQKSLSLSPG
light: not shown
chain: not shown
notes: OA (one-armed) format; clones 7813, 7919, 4372; also called v14039
B3: Variant 14045 (antibody, human IgG1, kappa)
heavy: EVQLVESGGGLVQPGGSLRLSCAASGFTFQDYTMDWVRQAPGKGLEWVADVNPNSGGSIYNQRFKGRFTLSVDRSWNTLYLQMNSLRAEDTAVYYCARNLGPWFYFDYWGQGTLVTVSSASTKGPSVFPLAPSSKSTSGGTAALGCLVKDYFPEPVTVSWNSGALTSGVHTFPAVLQSSGLYSLSSVVTVPSSSLGTQTYICNVNHKPSNTKVDKKVEPKSCDKTHTCPPCPAPELLGGPSVFLFPPKPKDTLMISRTPEVTCVVVDVSHEDPEVKFNWYVDGVEVHNAKTKPREEQYNSTYRVVSVLTVLHQDWLNGKEYKCKVSNKALPAPIEKTISKAKGQPREPQVYVYPPSRDELTKNQVSLTCLVKGFYPSDIAVEWESNGQPENNYKTTPPVLDSDGSFALVSKLTVDKSRWQQGNVFSCSVMHEALHNHYTQKSLSLSPG
light: not shown
chain: not shown
notes: OA (one-armed) format; clones 8784, 1811, 4372; also called v14045
B4: Variant 14042 (antibody, human IgG1, kappa)
heavy: EVQLVESGGGLVQPGGSLRLSCAASGFTFQDYTMDWVRQAPGKGLEWVADVNPNSGYSIYNQRFKGRFTLSVDRSKNTLYLQMNSLRAEDTAVYYCARNLGPSFYFDYWGQGTLVTVSSASTKGPSVFPLAPSSKSTSGGTAALGCLVKDYFPEPVTVSWNSGALTSGVHTFPAVLQSSGLYSLSSVVTVPSSSLGTQTYICNVNHKPSNTKVDKKVEPKSCDKTHTCPPCPAPELLGGPSVFLFPPKPKDTLMISRTPEVTCVVVDVSHEDPEVKFNWYVDGVEVHNAKTKPREEQYNSTYRVVSVLTVLHQDWLNGKEYKCKVSNKALPAPIEKTISKAKGQPREPQVYVYPPSRDELTKNQVSLTCLVKGFYPSDIAVEWESNGQPENNYKTTPPVLDSDGSFALVSKLTVDKSRWQQGNVFSCSVMHEALHNHYTQKSLSLSPG
light: not shown
chain: not shown
notes: OA (one-armed) format; clones 8788, 1811, 4372; also called v14042
B5: Variant 14035 (antibody, human IgG1, kappa)
heavy: EVQLVESGGGLVQPGGSLRLSCAASGFTFQDYTMDWVRQAPGKGLEWVADVNPNSGGSIYNQRFKGRFTLSVDRSKNTLYLQMNSLRAEDTAVYYCARNLGPSFYFDYWGQGTLVTVSSASTKGPSVFPLAPSSKSTSGGTAALGCLVKDYFPEPVTVSWNSGALTSGVHTFPAVLQSSGLYSLSSVVTVPSSSLGTQTYICNVNHKPSNTKVDKKVEPKSCDKTHTCPPCPAPELLGGPSVFLFPPKPKDTLMISRTPEVTCVVVDVSHEDPEVKFNWYVDGVEVHNAKTKPREEQYNSTYRVVSVLTVLHQDWLNGKEYKCKVSNKALPAPIEKTISKAKGQPREPQVYVYPPSRDELTKNQVSLTCLVKGFYPSDIAVEWESNGQPENNYKTTPPVLDSDGSFALVSKLTVDKSRWQQGNVFSCSVMHEALHNHYTQKSLSLSPG
light: not shown
chain: not shown
notes: OA (one-armed) format; clones 7815, 7917, 4372; also called v14035
B6: Variant 14040 (antibody, human IgG1, kappa)
heavy: EVQLVESGGGLVQPGGSLRLSCAASGFTFTDYTMDWVRQAPGKGLEWVADVNPNSGGSIYNQRFKGRFTLSVDRSENTLYLQMNSLRAEDTAVYYCARNLGPWFYFDYWGQGTLVTVSSASTKGPSVFPLAPSSKSTSGGTAALGCLVKDYFPEPVTVSWNSGALTSGVHTFPAVLQSSGLYSLSSVVTVPSSSLGTQTYICNVNHKPSNTKVDKKVEPKSCDKTHTCPPCPAPELLGGPSVFLFPPKPKDTLMISRTPEVTCVVVDVSHEDPEVKFNWYVDGVEVHNAKTKPREEQYNSTYRVVSVLTVLHQDWLNGKEYKCKVSNKALPAPIEKTISKAKGQPREPQVYVYPPSRDELTKNQVSLTCLVKGFYPSDIAVEWESNGQPENNYKTTPPVLDSDGSFALVSKLTVDKSRWQQGNVFSCSVMHEALHNHYTQKSLSLSPG
light: not shown
chain: not shown
notes: OA (one-armed) format; clones 8783, 1811, 4372; also called v14040

Tests used:
Recombinant human HER2 [1] = molecular target: T1, Recombinant human HER2 (human, UniProt P04626 23-652); assay: calculated from the SPR Ka ratio to WT v10013;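 note: SPR at 25 °C with constructs captured on an anti-human Fc chip and HER2 extracellular domain as analyte, kinetics fitted to a 1:1 Langmuir model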
T1 construct: extracellular domain; Analyte of the SPR assays; also called HER2 ECD; ECD2 of HER2

Recombinant human HER2 [2] = molecular target: T1, Recombinant human HER2; assay: SPR, Biacore T200, 25 C; variant captured on anti-human Fc, HER2 flowed;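 note: HER2 extracellular domain analyte run as duplicate dilutions over amine-coupled anti-Fc on a CM5 chip, rates from global sensorgram fitting with a 1:1 Langmuir model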
Recombinant human HER2 [3] = molecular target: T1, Recombinant human HER2; assay: SPR, 25 C; Ka ratio to WT v10013;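 note: constructs captured via anti-human Fc on CM5 chip, HER2 ECD as analyte in duplicate dilutions, sensorgrams globally fit to 1:1 Langmuir model on Biacore T200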

| Binder | ΔΔG (Recombinant human HER2 [1]) [kcal/mol] | Kd (Recombinant human HER2 [2]) [nM] | koff (Recombinant human HER2 [2]) [s⁻¹] | kon (Recombinant human HER2 [2]) [M⁻¹ s⁻¹] | Ka, mut/Ka, WT (Recombinant human HER2 [3]) [fold] |
| --- | --- | --- | --- | --- | --- |
| B1 | -1.7 | 1.1 | 5.8e-05 | 51000 | 17 |
| B2 | -1.7 | 1.1 | 5.5e-05 | 50000 | 18 |
| B3 | -3.2 | ~0.084 | ~5.9e-06 | 71000 | ~229 |
| B4 | -1.6 | 1.2 | 5.9e-05 | 47000 | 15 |
| B5 | -1.7 | 0.91 | 4e-05 | 44000 | 18 |
| B6 | -1.6 | 1.2 | 7.9e-05 | 64000 | 15 |
